pKd: −log10 of the molar value.
Columns and labels:
[1] = target: EcSSB dC (construct lacking the CTP, aa 1-170) (Escherichia coli) (UniProt P0AGE0); test: fluorescence polarisation; competitive: dC (2.5 uM tetramer) complexed with 25 nM flCTP, titrated with EcSSB constructs (tetramer concentrations); 25°C; 20 mM Tris–acetate pH 8, 50 mM K-glutamate, 10 mM Mg-acetate; competitive binding scheme
RecQ helicase = RecQ helicase (UniProt P15043); test: fluorescence polarisation; competitive: RecQ–flCTP mixture (0.65 uM RecQ, 25 nM flCTP) titrated with EcSSB constructs (tetramer concentrations); 25°C; 20 mM Tris–acetate pH 8, 50 mM K-glutamate, 10 mM Mg-acetate; competitive binding scheme
RecQ helicase, sequence (P15043 whole entry): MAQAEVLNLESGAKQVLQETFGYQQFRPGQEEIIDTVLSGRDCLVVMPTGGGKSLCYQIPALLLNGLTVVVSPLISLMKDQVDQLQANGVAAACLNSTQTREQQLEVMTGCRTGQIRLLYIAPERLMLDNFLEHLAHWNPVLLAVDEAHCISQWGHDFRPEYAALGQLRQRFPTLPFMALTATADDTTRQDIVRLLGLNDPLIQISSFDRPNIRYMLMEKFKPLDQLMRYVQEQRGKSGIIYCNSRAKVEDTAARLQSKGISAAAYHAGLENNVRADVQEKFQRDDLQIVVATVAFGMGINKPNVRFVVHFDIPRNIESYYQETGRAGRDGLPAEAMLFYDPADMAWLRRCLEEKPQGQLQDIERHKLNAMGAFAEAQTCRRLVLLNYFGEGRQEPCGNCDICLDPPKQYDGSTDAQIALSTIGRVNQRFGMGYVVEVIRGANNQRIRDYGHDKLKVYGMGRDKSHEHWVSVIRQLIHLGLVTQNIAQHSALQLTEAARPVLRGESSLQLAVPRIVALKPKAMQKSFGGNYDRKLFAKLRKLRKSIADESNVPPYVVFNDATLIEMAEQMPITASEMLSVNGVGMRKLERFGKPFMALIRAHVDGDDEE

[2] = target: EHE chimera (EcSSB with hSSB1 IDL) (Escherichia coli / human (IDL)) (UniProt P0AGE0); test: fluorescence polarization; conditions: 20 mM Tris-acetate pH 8, 50 mM K-glutamate, 10 mM Mg-acetate, 25 C, 10 nM labeled oligo, SSB concentrations as tetramers
[3] = target: EPE chimera (EcSSB with PfSSB IDL) (Escherichia coli / Plasmodium falciparum (IDL)) (UniProt P0AGE0); test: fluorescence polarization; conditions: 20 mM Tris-acetate pH 8, 50 mM K-glutamate, 10 mM Mg-acetate, 25 C; 10 nM labeled oligo, SSB concentrations as tetramers
[4] = target: EcSSB W136D W136D (Escherichia coli) (UniProt P0AGE0); test: fluorescence polarization; conditions: n = 2; 20 mM Tris-acetate pH 8, 50 mM K-glutamate, 10 mM Mg-acetate, 25 C; 10 nM labeled oligo, SSB concentrations as tetramers
[5] = target: EcSSB WT (Escherichia coli) (UniProt P0AGE0); test: fluorescence polarization; conditions: n = 1.9 tetramer per oligo; 20 mM Tris-acetate pH 8, 50 mM K-glutamate, 10 mM Mg-acetate, 25 C; 10 nM labeled oligo, SSB concentrations as tetramers
[6] = target: EcSSB d2G internal_change (Escherichia coli) (UniProt P0AGE0); test: fluorescence polarization; conditions: n = 2.8; 20 mM Tris-acetate pH 8, 50 mM K-glutamate, 10 mM Mg-acetate, 25 C; 10 nM labeled oligo, SSB concentrations as tetramers
[7] = target: EcSSB R116D-W136D R116D;W136D (Escherichia coli) (UniProt P0AGE0); test: fluorescence polarization; conditions: n = 2; 20 mM Tris-acetate pH 8, 50 mM K-glutamate, 10 mM Mg-acetate, 25 C; 10 nM labeled oligo, SSB concentrations as tetramers
[8] = target: EcSSB d1G internal_change (Escherichia coli) (UniProt P0AGE0); test: fluorescence polarization; conditions: n = 1.9 to 2.3 range; here 2.3; 20 mM Tris-acetate pH 8, 50 mM K-glutamate, 10 mM Mg-acetate, 25 C; 10 nM labeled oligo, SSB concentrations as tetramers

“EPE chimeric construct (EcSSB OB domain, IDL of Plasmodium falciparum SSB, EcSSB CTP) (from UniProt P0AGE0;Q8I415)” was tested, and the pKd [1] was 7.24 and the pKd (RecQ helicase) was greater than 8.00.
“TTTTTTTTTTTTTTTTTTTTTTTTTTTTTTTTTTTTTTTTTTTTTTTTTTTTTTTTTTTTTTTTTTTTTTTTTTTTTTT [dT79]” was tested, and the pKd ([2]; n = 2.3) was greater than 8.00 and the pKd [3] was greater than 8.00.
“EcSSB GG construct (entire IDL except the CTP eliminated) (from UniProt P0AGE0 1-113) (natural protein)” was tested, and the pKd [1] was 7.01.
Work on ssDNA36 yielded a pKd [4] of 7.80, a pKd [5] of 7.49 and a pKd ([2]; n = 2.1) of 7.02. The pKd [6] was 7.34, the pKd [7] was 7.68 and the pKd [8] was 7.05. It also gave a pKd [3] of 7.08.
